Test results taken from patent publication US8278415B2, “Dimeric high affinity EGFR constructs and uses thereof” (Centocor, Inc., priority 2006, dated 2012).
≈ marks a conversion by molar mass, not a printed value. Like-named read-outs stand apart in the source and are kept apart here.

Columns and labels:
[1] = system: A431 cells; assay: Flow cytometry of phage binding to A431 cells; assay type: cell-based, human; conditions: for binding to A431 tumor cells: anti-phage-FITC
Method: (§1) To evaluate whether the selected peptides from phage display can bind to tumor cells that overexpress EGFR, A431 cells (epidermoid cancer) or an EGFR negative tumor cells, MCF-7 (breast carcinoma) were tested in a flow cytometry assay using fluorescence detection (FACS). For P145, PP146 and their control phage, 2.5×10^5 A431 cells were resuspended in 25 μl of flow staining buffer (dPBS with 1% BSA, 0.09% sodium azide) and incubated with 25 μl of phage clones for 1 hour at 4° C. […] Cells were washed two times with flow staining buffer and then incubated with 0.5 μg of mouse anti M13/fd/Fl filamentous phages monoclonal antibody conjugated to FITC (Fitzgerald Industries International, Inc. Concord, Mass.) for 45 minutes at 4° C. Cells were washed two times with flow staining buffer and acquired by FACSCalibur (BD, Franklin Lakes, N.J.) to detect bound phages on tumor cell surface.
A431 cells (epidermoid cancer) which overexpress EGFR and EGFR-negative tumor cells, MCF-7 (breast carcinoma) were tested in a flow cytometry assay. Tumor cells (A431 and MCF-7) were harvested with 0.25% tyrpsin-EDTA and washed twice with FACS staining buffer (dPBS with 1% BSA, 0.09% sodium azide). […] After binding at 4° C., cells were washed twice with FACS staining buffer to remove unbound phage and then incubated with 0.5 μg of mouse anti-M13 monoclonal antibody conjugated to FITC (Fitzgerald Industries International, Inc. Concord, Mass.) for 1 hour at 4° C. Mouse anti-M13-FITC incubated with cells without phage was used as background binding. Cells were washed twice with FACS staining buffer to remove unbound detection antibody.

[2] = molecular target: T1, b-sEGFR-MMB (Homo sapiens, UniProt P00533); assay: Phage ELISA on biotinylated sEGFR-MMB captured on streptavidin; assay type: binding
T1 construct: made in house; host or cells: HEK 293E
Method: (§2) Phage were amplified in XL-1 Blue host cells and purified by precipitation with 6% polyethylene glycol-8000/0.5 M sodium chloride. The precipitated phage were resuspended in phosphate-buffered saline in a volume that was 1/100th the original culture volume. […] The binding reaction was incubated for 1 hr at room temperature, and then bound phage were detected with anti-M13/HRP as above. For ELISAs with biotinylated receptors, streptavidin at 5 μg/ml was coated in the wells overnight at 4° C. […] The wells were rinsed with TBS-T and then blocked with Starting Block. Bound phage were washed and detected with anti-M13/HRP as described above.

[3] = molecular target: T2, sEGFR-MMB (Homo sapiens, UniProt P00533); assay: Phage ELISA on coated sEGFR-MMB; assay type: binding
T2 construct: made in house; host or cells: HEK 293E
Method: (§3) The protein solution was removed and wells were rinsed twice with Tris-Buffered Saline containing 0.05% Tween-20 (TBS-T) using a plate washer (Embla). The wells were blocked with Starting Block in TBS for 1 hr at room temperature and rinsed twice with TBS-T. An equal volume of phage supernatant and Starting Block in TBS were incubated in the wells for 1 hr at room temperature, and the wells were rinsed five times with TBS-T. Anti-M13/horseradish peroxidase conjugate (Amersham), diluted 1:5000 in Starting Block in TBS, was added into the wells and incubated for 1 hour at room temperature, and then the wells were rinsed five times with TBS-T. Finally, chemiluminescent peroxidase substrate (Roche) was added to the wells, and chemiluminescence was measured on a Tecan plate reader.
as §2
(§4) The plates were held overnight at room temperature, washed twice with TBST (0.5M Tris Base, 9% NaCl, 0.05% tween, pH 7.6), and loaded with 200 μL per well of Starting Block (Pierce). […] The plates were held at room temperature for 1.5 hours for blocking Plates were then washed twice with TBST and phage were added. The phage solutions were crude phage supernatant from overnight cultures diluted four-fold with Starting Block. After a one-hour incubation, the plates were washed thrice with TBST and 100 μL of a 1:5000 dilution of phage binding antibody conjugate (α-M13-HRP) was added to the wells. EGF was added if applicable. After a one-hour incubation the plates were washed five times with TBST, 100 μL of POD (BM Chemiluminescence ELISA substrate; Roche Applied Science) was added, and chemiluminescene recorded.

[4] = system: MDA-MB-468; assay: cells; conditions: Homo sapiens
[5] = molecular target: T3, EGF + sEGFR-MMB Complex (Homo sapiens, UniProt P00533); assay: Phage ELISA on sEGFR-MMB in the presence of EGF; assay type: binding
T3 construct: made in house
Method: as §4

[6] = system: MCF-7; assay: Flow cytometry of phage binding to MCF-7 cells; assay type: cell-based, human
Method: as §1
A431 cells (epidermoid cancer) which overexpress EGFR and EGFR-negative tumor cells, MCF-7 (breast carcinoma) were tested in a flow cytometry assay. Tumor cells (A431 and MCF-7) were harvested with 0.25% tyrpsin-EDTA and washed twice with FACS staining buffer (dPBS with 1% BSA, 0.09% sodium azide). […]

[7] = molecular target: T2, sEGFR-MMB; assay: Competitive phage ELISA (EGF, TGF-α, IMC-c225 as competitive agent); assay type: binding
Method: as §2

[8] = molecular target: T4, sEGFR-His6 (Homo sapiens, UniProt P00533); assay: Phage ELISA on coated sEGFR-His6; assay type: binding
T4 construct: made in house; host or cells: HEK293E
Method: as §4

[9] = molecular target: Control-MMB (Homo sapiens, UniProt P01857); assay: Phage ELISA on Control-MMB; assay type: binding
Method: as §3
The plates were held overnight at room temperature, washed twice with TBST (0.5M Tris Base, 9% NaCl, 0.05% tween, pH 7.6), and loaded with 200 μL per well of Starting Block (Pierce). […] The plates were held at room temperature for 1.5 hours for blocking Plates were then washed twice with TBST and phage were added. […] After a one-hour incubation the plates were washed five times with TBST, 100 μL of POD (BM Chemiluminescence ELISA substrate; Roche Applied Science) was added, and chemiluminescene recorded.

[10] = molecular target: T5, b-sEGFR-His (Homo sapiens, UniProt P00533); assay: Phage ELISA on biotinylated sEGFR-His6 captured on streptavidin; assay type: binding; conditions: biotinylated and immobilized on streptavidin
T5 construct: made in house; host or cells: HEK293E
Method: as §2

binding to sEGFR-MMB (in words) [3] | binding to sEGFR-His6 (in words) [10] | Molecule | binding to A431 relative to positive control EGF phage [1] | binding to A431 tumor cells [1] | competition with EGF, TGF-α, IMC-c225 (in words) [7] | other results
bound both sEGFR-MMB and sEGFR-His6 | bound both sEGFR-MMB and sEGFR-His6 | SGCLDALWQCVY (Random peptide) [P174] | comparable to that by a positive control phage that displayed EGF on pIX | displayed binding to A431 tumor cells | not inhibited by the EGFR ligands tested | –
bound both sEGFR-MMB and sEGFR-His6 | bound both sEGFR-MMB and sEGFR-His6 | KTCVSTTFDLWFVCFA (Random peptide) [P176] | comparable to that by a positive control phage that displayed EGF on pIX | displayed binding to A431 tumor cells | competitive with IMC-c225 (cetuximab), EGF, and TGF-α | –
bound sEGFR-MMB | not sEGFR-His6 | LPDDSLPELICKVRG (Random peptide) [P175] | – | – | did not compete with EGFR ligands | –

More lines, now with the values behind:

Molecule | binding to sEGFR-MMB (in words) [3] | binding to sEGFR-His6 (in words) [10] | binding to A431 relative to positive control EGF phage [1] | binding to A431 tumor cells [1] | competition with EGF, TGF-α, IMC-c225 (in words) [7] | other results
VLCHRYYHPICYT [P145] | – | – | weaker than that exhibited by a positive control phage that displayed EGF on pIII | displayed binding to A431 tumor cells | – | –
TLCRSFFHPLCYA (Random peptide) [P146] | – | – | weaker than that exhibited by a positive control phage that displayed EGF on pIII | displayed binding to A431 tumor cells | – | –
GPCVLIRDYYLLCLE (Random peptide) [P179] | bound sEGFR-MMB when it was passively immobilized in ELISA wells | – | – | – | – | binding to biotinylated sEGFR-MMB captured on streptavidin (in words) [2]: not biotinylated sEGFR-MMB that had been captured on streptavidin
COc1cccc2c1C(=O)c1c(O)c3c(c(O)c1C2=O)C[C@@](O)(C(=O)CO)C[C@@H]3O[C@H]1C[C@H](N)[C@H](O)[C@H](C)O1 [Doxorubicin] | – | – | – | – | – | IC50 ([4]; MDA-MB-468, read-out: IC50 D4): 2.5 mg/L (≈ 4.6 µM); IC50 ([4]; MDA-MB-468, read-out: IC50 D6): < 1.6 mg/L
DPCTWEVWGRECLQ [P190] | binds weakly | – | – | bind to A431 | did not compete with EGF or TGF-alpha | binding to dimeric EGFR in the presence of EGF or TGF-a ([5]; pIX display): increased in the presence of EGF or TGF-a; binding to the complex between EGF and sEGFR-MMB (in words) ([5]; phage ELISA): binds well; Relative Signal ([5]; phage ELISA, construct SEGFR-MMB + EGF): 29408 ± 259; binding to MCF-7 [6]: not to MCF-7; binding to sEGFR-His6 (in words) ([8]; coated monomeric sEGFR): virtually no binding; Relative Signal ([8]; construct sEGFR-His6): 6; binding to Control-MMB (in words) [9]: fails to bind; Relative Signal ([3]; construct SEGFR-MMB): 3937 ± 335; binding to A431 cells in the presence of EGF [1]: increased; binding to A431 cells in the presence of EGF and cetuximab [1]: decreases
